From IntAct's records for PubMed 19523115

B1: Solute carrier family 2, facilitated glucose transporter member 8 (Mus musculus), Q9JIF3 (parent)
chain: MSPEDPQETQPLLRPPEARTPRGRRVFLASFAAALGPLSFGFALGYSSPAIPSLRRTAPPALRLGDNAASWFGAVVTLGAAAGGILGGWLLDRAGRKLSLLLCTVPFVTGFAVITAARDVWMLLGGRLLTGLACGVASLVAPVYISEIAYPAVRGLLGSCVQLMVVTGILLAYVAGWVLEWRWLAVLGCVPPTLMLLLMCYMPETPRFLLTQHQYQEAMAALRFLWGSEEGWEEPPVGAEHQGFQLALLRRPGIYKPLIIGISLMVFQQLSGVNAIMFYANSIFEEAKFKDSSLASVTVGIIQVLFTAVAALIMDRAGRRLLLALSGVIMVFSMSAFGTYFKLTQSLPSNSSHVGLVPIAAEPVDVQVGLAWLAVGSMCLFIAGFAVGWGPIPWLLMSEIFPLHVKGVATGICVLTNWFMAFLVTKEFSSVMEMLRPYGAFWLTAAFCALSVLFTLTVVPETKGRTLEQVTAHFEGR
B2: Solute carrier family 2, facilitated glucose transporter member 8 (Mus musculus), Q9JIF3 (parent)
chain: B1 chain
partner: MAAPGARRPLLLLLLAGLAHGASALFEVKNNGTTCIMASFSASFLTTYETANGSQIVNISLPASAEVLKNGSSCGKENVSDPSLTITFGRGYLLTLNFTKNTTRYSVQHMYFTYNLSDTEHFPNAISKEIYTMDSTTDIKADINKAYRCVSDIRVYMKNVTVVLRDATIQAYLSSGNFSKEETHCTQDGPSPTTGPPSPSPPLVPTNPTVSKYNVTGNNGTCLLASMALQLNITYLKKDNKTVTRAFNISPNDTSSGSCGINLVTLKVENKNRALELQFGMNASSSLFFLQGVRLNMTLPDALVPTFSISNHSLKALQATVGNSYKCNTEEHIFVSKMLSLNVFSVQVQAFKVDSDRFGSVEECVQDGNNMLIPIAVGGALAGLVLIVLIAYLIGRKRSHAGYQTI

Variants of: B1
Conditions: with ap2b1_mouse Ap2b1, Q9DBG3
Sequence of ap2b1_mouse Ap2b1, Q9DBG3 (Q9DBG3 whole entry): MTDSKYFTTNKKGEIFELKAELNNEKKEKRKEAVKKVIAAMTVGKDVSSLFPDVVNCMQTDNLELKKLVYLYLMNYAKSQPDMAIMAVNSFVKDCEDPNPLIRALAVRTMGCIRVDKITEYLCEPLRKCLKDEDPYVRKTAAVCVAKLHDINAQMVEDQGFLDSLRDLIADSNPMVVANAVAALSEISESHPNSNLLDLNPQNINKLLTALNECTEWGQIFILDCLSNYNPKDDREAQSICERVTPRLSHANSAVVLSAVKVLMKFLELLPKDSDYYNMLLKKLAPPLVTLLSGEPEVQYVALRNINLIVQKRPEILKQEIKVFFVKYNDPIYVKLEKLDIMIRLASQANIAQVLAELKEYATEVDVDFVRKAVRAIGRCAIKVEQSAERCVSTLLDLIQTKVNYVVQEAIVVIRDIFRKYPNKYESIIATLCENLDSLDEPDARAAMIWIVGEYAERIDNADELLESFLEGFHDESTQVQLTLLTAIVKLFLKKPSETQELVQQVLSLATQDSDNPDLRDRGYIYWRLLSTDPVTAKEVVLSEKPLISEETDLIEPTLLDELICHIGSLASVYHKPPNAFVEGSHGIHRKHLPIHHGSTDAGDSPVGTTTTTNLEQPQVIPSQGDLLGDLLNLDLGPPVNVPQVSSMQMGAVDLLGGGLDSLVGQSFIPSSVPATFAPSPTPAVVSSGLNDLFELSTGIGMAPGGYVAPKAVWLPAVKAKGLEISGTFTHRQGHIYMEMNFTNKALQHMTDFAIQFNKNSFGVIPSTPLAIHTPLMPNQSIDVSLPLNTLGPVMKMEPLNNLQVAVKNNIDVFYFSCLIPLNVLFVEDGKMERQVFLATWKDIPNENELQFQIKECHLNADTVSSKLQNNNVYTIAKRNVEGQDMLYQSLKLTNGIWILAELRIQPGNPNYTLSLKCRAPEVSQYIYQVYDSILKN

effect of a mutation on the interaction | Variant
increasing interaction | L13A

Variants of: B1
Conditions: with ap1g1_human AP1G1, O43747
Sequence of ap1g1_human AP1G1, O43747 (O43747 whole entry): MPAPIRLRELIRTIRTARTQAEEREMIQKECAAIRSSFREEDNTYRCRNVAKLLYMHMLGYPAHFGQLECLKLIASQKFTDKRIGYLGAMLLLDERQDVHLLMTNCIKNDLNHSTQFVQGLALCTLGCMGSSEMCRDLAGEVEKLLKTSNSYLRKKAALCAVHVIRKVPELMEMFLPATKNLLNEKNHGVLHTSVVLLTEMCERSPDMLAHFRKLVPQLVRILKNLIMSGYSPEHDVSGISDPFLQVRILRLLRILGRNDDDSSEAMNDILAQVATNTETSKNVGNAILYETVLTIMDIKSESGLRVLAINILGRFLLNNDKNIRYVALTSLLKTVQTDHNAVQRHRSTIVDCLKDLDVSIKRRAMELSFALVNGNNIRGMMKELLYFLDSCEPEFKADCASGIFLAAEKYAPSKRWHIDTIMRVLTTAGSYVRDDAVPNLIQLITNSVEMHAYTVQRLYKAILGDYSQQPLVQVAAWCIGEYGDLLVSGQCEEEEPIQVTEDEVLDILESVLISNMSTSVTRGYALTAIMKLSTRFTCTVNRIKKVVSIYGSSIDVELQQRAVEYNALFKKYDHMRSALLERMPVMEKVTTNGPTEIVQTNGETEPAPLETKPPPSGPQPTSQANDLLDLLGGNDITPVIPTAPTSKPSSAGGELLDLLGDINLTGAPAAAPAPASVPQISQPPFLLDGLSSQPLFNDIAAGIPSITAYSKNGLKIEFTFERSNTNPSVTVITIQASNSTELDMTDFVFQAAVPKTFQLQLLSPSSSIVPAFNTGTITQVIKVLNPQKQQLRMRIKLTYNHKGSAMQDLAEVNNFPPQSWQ

effect of a mutation on the interaction | Variant
disrupting interaction | L12A

Variants of: B1
Conditions: with ap1g1_mouse Ap1g1, P22892
Sequence of ap1g1_mouse Ap1g1, P22892 (P22892 whole entry): as the sequence (O43747 whole entry) above, with T596S, S650A, N664T, A674T, A702P, I769V counted along it

effect of a mutation on the interaction | Variant
disrupting interaction | L12A

Variants of: B1
Conditions: with ap2b1_rat Ap2b1, P62944
Sequence of ap2b1_rat Ap2b1, P62944 (P62944 whole entry): as the sequence (Q9DBG3 whole entry) above, with T612A counted along it

effect of a mutation on the interaction | Variant
decreasing interaction | L12A

Variants of: B2
Conditions: with lamp1_mouse Lamp1, P11438

effect of a mutation on the interaction | Variant
disrupting interaction | L12A
